The target in this assay is T1, human IL-17 (human, UniProt Q16552 24-155).
T1 construct: also called hIL-17; IL-17A
Nature of the assay: SPR (BIACORE), antibody captured by anti-human Fc, antigen in flow; grade: ++ strong binding, + binding, +/- close to background.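 Further: antigen injected at two-fold dilutions from 50 nM over captured antibody at 30 µL/min, dissociation followed for 10 min, kinetics fitted with a 1:1 mass-transport model.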 In general terms: In SPR one partner is held on a chip, and binding of the other changes the refractive index at the surface.

T1 sequence (Q16552 24-155 limits assumed): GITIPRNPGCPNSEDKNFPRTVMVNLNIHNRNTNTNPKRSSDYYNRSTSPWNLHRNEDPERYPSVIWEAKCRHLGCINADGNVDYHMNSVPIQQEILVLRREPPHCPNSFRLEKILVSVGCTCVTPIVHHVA
Text: BIACORE T100™ is used to determine antibody-antigen binding kinetics and affinity. The technology is based on surface plasmon resonance (SPR), an optical phenomenon that enables detection of label-free interactions in real time within a dextran biosensor matrix. It is therefore suited for measuring rate constants of association (kₒₙ) as well as dissociation (koff). All reagents and materials were purchased from GE Healthcare (Buckinghamshire, United Kingdom). […] 1×HBS-EP+ buffer (of 0.01M HEPES, 0.15M NaCl, 3 mM EDTA, 0.05% Polysorbate, pH 7.6) was used to reconstitute antigen at various concentrations (starting at 50 nM and using two-fold serial dilutions for each concentration). 210 μL of each antigen concentration was injected over captured antibody at a flow rate of 30 μL/min, then allowed to dissociate for 10 minutes. Surface was regenerated with 60 μL of 3M MgCl₂ after each cycle to establish baseline. Association and dissociation kinetic constants (kₐ and kd) were evaluated with “1:1 with mass transport” binding model in the BIACORE™ T100 Evaluation Software. The degree of binding for the BIACORE™ assay was measured as “++” (strong binding), “+” (binding), or “+/−” (close to background).

B1: MP4-9 (antibody, V domains shown)
VH: EVQLVESGGGLVQPGGSLRLSCAASGFTFSNYWMSWVRQAPGKGLEWVAAIKQDGSEKYYVDSVKGRFTISRDNAKNSLYLQMNSLRAEDTAVYYCARDYYDILTDYYIHYWYFDLWGRGTLVTVSS
VL: not shown
notes: Captured by anti-human Fc
Turning to B1, the binding result was “binds”.

B2: 847/772 (antibody, V domains shown)
VH: EVQLVESGGGLVQPGGSLRLSCAASGFTFSSHWMSWVRQAPGKGLEWVASIKEDGSEKYYVDSVKGRFTISRDNAKNSLYLQMNSLRAEDTAVYYCARDYYDILTDYYIHYWYFDLWGRGTLVTVSS
VL: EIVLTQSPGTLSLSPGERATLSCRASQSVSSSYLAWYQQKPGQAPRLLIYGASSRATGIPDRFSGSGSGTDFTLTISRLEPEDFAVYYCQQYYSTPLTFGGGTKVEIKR
notes: Captured by anti-human Fc
As to B2, the binding result is on record as “binds”.

B3: MP4-8 (antibody, V domains shown)
VH: EVQLVESGGGLVQPGGSLRLSCAASGFTFSNYWMSWVRQAPGKGLEWVANINQDGSEKYYVDSVKGRFTISRDNAKNSLYLQMNSLRAEDTAVYYCVRDYYDILTDYYIHYWYFDLWGRGTLVTVSS
VL: not shown
notes: Captured by anti-human Fc
As to B3, the binding result was “binds”.

B4: MP4-23 (antibody, V domains shown)
VH: EVQLVESGGGLVQPGGSLRLSCAASGFTFSSYWMNWVRQAPGKGLEWVAAIKQDGSEKYYVGSVKGRFTISRDNAKNSLYLQMNSLRAEDTAVYYCVRDYYDILTDYYIHYWYFDLWGRGTLVTVSS
VL: not shown
notes: Captured by anti-human Fc
With B4, the binding result is listed as “binds”.

B5: MP4-14 (antibody, V domains shown)
VH: EVQLVESGGGLVQPGGSLRLSCAASGFTFSSYWMSWVRQAPGKGLEWVAAINQDGSEKYYVDSVKGRFTISRDNAKNSLYLQMNSLRAEDTAVYYCARDYYDILTDYYIHYWYFDLWGRGTLVTVSS
VL: not shown
notes: Captured by anti-human Fc
Consider B5, for which the binding result was “binds”.

B6: MP4-21 (antibody, V domains shown)
VH: EVQLVESGGGLVQPGGSLRLSCAASGFTFSNYWMNWVRQAPGKGLEWVANINQDGSEKYYVGSVKGRFTISRDNAKNSLYLQMNSLRAEDTAVYYCARDYYDILTDYYIHYWYFDLWGRGTLVTVSS
VL: not shown
notes: Captured by anti-human Fc
B6: the binding result is reported as “binds”.

B7: 878/772 (antibody, V domains shown)
VH: EVQLVESGGGLVQPGGSLRLSCAASGFTFSDYWMDWVRQAPGKGLEWVANIREDGSEKYYVDSVKGRFTISRDNAKNSLYLQMNSLRAEDTAVYYCARDYYDILTDYYIHYWYFDLWGRGTLVTVSS
VL: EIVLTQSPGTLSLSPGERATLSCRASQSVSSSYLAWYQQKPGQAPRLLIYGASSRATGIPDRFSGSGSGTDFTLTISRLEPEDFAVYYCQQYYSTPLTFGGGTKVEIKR
notes: Captured by anti-human Fc
For B7, the binding result was “binds”.

B8: MP4-20 (antibody, V domains shown)
VH: EVQLVESGGGLVQPGGSLRLSCAASGFTFSNYWMSWVRQAPGKGLEWVAAIKQDGSEKYYVGSVKGRFTISRDNAKNSLYLQMNSLRAEDTAVYYCARDYYDILTDYYIHYWYFDLWGRGTLVTVSS
VL: not shown
notes: Captured by anti-human Fc
For B8, the binding result is “binds”.

B9: MP4-17 (antibody, V domains shown)
VH: EVQLVESGGGLVQPGGSLRLSCAASGFTFSNYWMSWVRQAPGKGLEWVANIKQDGSEKYYVDSVKGRFTISRDNAKNSLYLQMNSLRAEDTAVYYCARDYYDILTDYYIHYWYFDLWGRGTLVTVSS
VL: not shown
notes: Captured by anti-human Fc
Consider B9, for which the binding result is “binds”.

B10: MP4-11 (antibody, V domains shown)
VH: EVQLVESGGGLVQPGGSLRLSCAASGFTFSNYWMSWVRQAPGKGLEWVANIKQDGSEKYYVDSVKGRFTISRDNAKNSLYLQMNSLRAEDTAVYYCVRDYYDILTDYYIHYWYFDLWGRGTLVTVSS
VL: not shown
notes: Captured by anti-human Fc
With B10, the binding result is reported as “binds”.

B11: 1134/773 (antibody, V domains shown)
VH: EVQLVESGGGLVQPGGSLRLSCAASGFTFSSYWMSWVRQTPGKGLEWVASIKQDGSEKYYVDSVKVRFTISRDNAKNSLYLQMNSLRAEDTAVYYCARDYYDILTDYYIHYWYFDLWGRGTLVTVSS
VL: not shown
notes: Captured by anti-human Fc
Take B11: the binding result is given as “binds”.

B12: 1102/773 (antibody, V domains shown)
VH: EVQLVESGGGLVQPGGSLRLSCAASGFTFSSYWMDWVRQAPGKGLEWVANIREDGSEKYYVDSVKGRFTISRDNAKNSLYLQMNSLRAEDTAVYYCARDYYDILTDYYIHYWYFDLWGRGTLVTVSS
VL: not shown
notes: Captured by anti-human Fc
B12: the binding result is on record as “binds”.

B13: 1139/773 (antibody, V domains shown)
VH: EVQLVESGGGLVQPGGSLRLSCAASGFTFSSHWMSWVRQTPGKGLEWVASIKEDGSEKYYVDSVKGRFTISRDNAKNSLYLQMNSLRAEDTAVYYCARDYYDILTDYYIHYWYFDLWGRGTLVTVSS
VL: not shown
notes: Captured by anti-human Fc
Consider B13, for which the binding result is listed as “binds”.

B14: 1137/773 (antibody, V domains shown)
VH: EVQLVESGGGLVQPGGSLRLSCAASGFTFSSYWMSWVRQTPGKGLEWVANIKQDGSEKYYVDSVKGRFTISRDNAKNSLYLQMNSLRAEDTAVYYCARDYYDILTDYYIHYWYFDLWGRGTLVTVSS
VL: not shown
notes: Captured by anti-human Fc
In the case of B14, the binding result is on record as “binds”.

B15: MP4-4 (antibody, V domains shown)
VH: EVQLVESGGGLVQPGGSLRLSCAASGFTFSNYWMNWVRQAPGKGLEWVAAIKQDGSEKYYVGSVKGRFTISRDNAKNSLYLQMNSLRAEDTAVYYCARDYYDILTDYYIHYWYFDLWGRGTLVTVSS
VL: not shown
notes: Captured by anti-human Fc
Take B15: the binding result is on record as “binds”.

B16: 1144/773 (antibody, V domains shown)
VH: EVQLVESGGGLVQPGGSLRLSCAASGFTFSNHWMNWVRQAPGKGLEWVASIREDGSEKYYVDSVKGRFTISRDNAKNSLYLQMNSLRAEDTAVYYCARDYYDILTDYYIHYWYFDLWGRGTLVTVSS
VL: not shown
notes: Captured by anti-human Fc
Regarding B16, the binding result is given as “binds”.

B17: 1142/773 (antibody, V domains shown)
VH: EVQLVESGGGLVQPGGSLRLSCAASGFTFSDYWMDWVRQAPGKGLEWVASIREDGSEKYYVGSVKGRFTISRDNAKNSLYLQMNSLRVEDTAVYYCVRDYYDILTDYYIHYWYFDLWGRGTLVTVSS
VL: not shown
notes: Captured by anti-human Fc
Consider B17, for which the binding result is on record as “binds”.

B18: MP4-6 (antibody, V domains shown)
VH: EVQLVESGGGLVQPGGSLRLSCAASGFTFSSYWMSWVRQAPGKGLEWVANINQDGSEKYYVGSVKGRFTISRDNAKNSLYLQMNSLRAEDTAVYYCVRDYYDILTDYYIHYWYFDLWGRGTLVTVSS
VL: not shown
notes: Captured by anti-human Fc
For B18, the binding result is recorded as “binds”.

B19: 1143/773 (antibody, V domains shown)
VH: EVQLVESGGGLVQPGGSLRLSCAASGFTFSNHWMNWVRQAPGKGLEWVAGIREDGSEKYYVDSVKGRFTISRDNAKNSLYLQMNSLRAEDTAVYYCARDYYDILTDYYIHYWYFDLWGRGTLVTVSS
VL: not shown
notes: Captured by anti-human Fc
In the case of B19, the binding result is reported as “binds”.

B20: MP4-5 (antibody, V domains shown)
VH: EVQLVESGGGLVQPGGSLRLSCAASGFTFSNYWMNWVRQAPGKGLEWVAAIKQDGSEKYYVGSVKGRFTISRDNAKNSLYLQMNSLRAEDTAVYYCVRDYYDILTDYYIHYWYFDLWGRGTLVTVSS
VL: not shown
notes: Captured by anti-human Fc
On to B20, for which the binding result is “binds”.

B21: MP4-2 (antibody, V domains shown)
VH: EVQLVESGGGLVQPGGSLRLSCAASGFTFSSYWMSWVRQAPGKGLEWVAAINQDGSEKYYVGSVKGRFTISRDNAKNSLYLQMNSLRAEDTAVYYCVRDYYDILTDYYIHYWYFDLWGRGTLVTVSS
VL: not shown
notes: Captured by anti-human Fc
For B21, the binding result is given as “binds”.

B22: MP4-7 (antibody, V domains shown)
VH: EVQLVESGGGLVQPGGSLRLSCAASGFTFSNYWMSWVRQAPGKGLEWVANINQDGSEKYYVGSVKGRFTISRDNAKNSLYLQMNSLRAEDTAVYYCVRDYYDILTDYYIHYWYFDLWGRGTLVTVSS
VL: not shown
notes: Captured by anti-human Fc
B22: the binding result was “binds”.

B23: 1129/773 (antibody, V domains shown)
VH: EVQLVESGGGLVQPGGSLRLSCAASGFTFSSYWMSWVRQAPGKGLEWVANIKQDGSEKYYVDSVKVRFTISRDNAKNSLYLQMNSLRAEDTAVYYCARDYYDILTDYYIHYWYFDLWGRGTLVTVSS
VL: not shown
notes: Captured by anti-human Fc
Consider B23, for which the binding result was “binds”.

B24: 1147/773 (antibody, V domains shown)
VH: EVQLVESGGGLVQPGGSLRLSCAASGFTFSSYWMDWVRQAPGKGLEWVASIREDGSEKYYVDSVKGRFTISRDNAKNSLYLQMNSLRAEDTAVYYCARDYYDILTDYYIHYWYFDLWGRGTLVTVSS
VL: not shown
notes: Captured by anti-human Fc
For the molecule B24, the binding result was “binds”.

B25: 1153/773 (antibody, V domains shown)
VH: EVQLVESGGGLVQPGGSLRLSCAASGFTFSSHWMSWVRQAPGKGLEWVASIKEDGSEKYYVDSVKVRFTISRDNAKNSLYLQMNSLRAEDTAVYYCARDYYDILTDYYIHYWYFDLWGRGTLVTVSS
VL: not shown
notes: Captured by anti-human Fc
Take B25: the binding result is “binds”.

B26: 887/772 (antibody, V domains shown)
VH: EVQLVESGGGLVQPGGSLRLSCAASGFTFSDYWMDWVRQAPGKGLEWVASIREDGSEKYYVDSVKGRFTISRDNAKNSLYLQMNSLRAEDTAVYYCARDYYDILTDYYIHYWYFDLWGRGTLVTVSS
VL: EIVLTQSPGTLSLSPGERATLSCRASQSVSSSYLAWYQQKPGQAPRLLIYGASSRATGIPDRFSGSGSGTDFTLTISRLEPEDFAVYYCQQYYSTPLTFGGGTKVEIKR
notes: Captured by anti-human Fc
On to B26, for which the binding result is given as “binds”.

B27: MP4-16 (antibody, V domains shown)
VH: EVQLVESGGGLVQPGGSLRLSCAASGFTFSNYWMSWVRQAPGKGLEWVAAINQDGSEKYYVGSVKGRFTISRDNAKNSLYLQMNSLRAEDTAVYYCARDYYDILTDYYIHYWYFDLWGRGTLVTVSS
VL: not shown
notes: Captured by anti-human Fc
On to B27, for which the binding result is “binds”.

B28: 846/773 (antibody, V domains shown)
VH: EVQLVESGGGLVQPGGSLRLSCAASGFTFSNSWMTWVRQAPGKGLEWVASINHDGSEKHYVGSVKGRFTISRDNAKNSLYLQMNSLRVEDTAVYYCARDYYDILTDYYIHYWYFDLWGRGTLVTVSS
VL: not shown
notes: Captured by anti-human Fc
As to B28, the binding result is listed as “binds”.

B29: 1146/773 (antibody, V domains shown)
VH: EVQLVESGGGLVQPGGSLRLSCAASGFTFSNYWMDWVRQAPGKGLEWVASIREDGSEKYYVGSVKGRFTISRDNAKNSLYLQMNSLRVEDTAVYYCVRDYYDILTDYYIHYWYFDLWGRGTLVTVSS
VL: not shown
notes: Captured by anti-human Fc
Consider B29, for which the binding result is given as “binds”.

B30: MP4-22 (antibody, V domains shown)
VH: EVQLVESGGGLVQPGGSLRLSCAASGFTFSNYWMSWVRQAPGKGLEWVAAIKQDGSEKYYVDSVKGRFTISRDNAKNSLYLQMNSLRAEDTAVYYCVRDYYDILTDYYIHYWYFDLWGRGTLVTVSS
VL: not shown
notes: Captured by anti-human Fc
Turning to B30, the binding result is given as “binds”.

B31: MP4-10 (antibody, V domains shown)
VH: EVQLVESGGGLVQPGGSLRLSCAASGFTFSNYWMSWVRQAPGKGLEWVAAIKQDGSEKYYVGSVKGRFTISRDNAKNSLYLQMNSLRAEDTAVYYCVRDYYDILTDYYIHYWYFDLWGRGTLVTVSS
VL: not shown
notes: Captured by anti-human Fc
Turning to B31, the binding result is listed as “binds”.
